The values that follow are results of earlier work, collected in article PMC12667676.

The series concerns the target MCHR1 (Homo sapiens) (UniProt Q99705).
UniProt Q99705, sequence (Q99705 whole entry): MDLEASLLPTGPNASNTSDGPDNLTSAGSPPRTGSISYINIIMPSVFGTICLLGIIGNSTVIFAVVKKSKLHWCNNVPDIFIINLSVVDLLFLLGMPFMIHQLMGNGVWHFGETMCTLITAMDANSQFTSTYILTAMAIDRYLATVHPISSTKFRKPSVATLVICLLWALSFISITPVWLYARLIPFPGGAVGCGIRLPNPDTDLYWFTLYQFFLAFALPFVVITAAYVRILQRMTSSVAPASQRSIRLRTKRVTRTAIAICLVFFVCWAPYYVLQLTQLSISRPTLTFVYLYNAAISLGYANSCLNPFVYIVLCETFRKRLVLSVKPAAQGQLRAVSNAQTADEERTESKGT

For orientation: Kd means the equilibrium constant for the complex coming apart. Turning to “melanin-concentrating hormone (from UniProt P20382)”, the Kd was 3.1 nM.
